T1: hIL2Rβ (hCD122) (human, UniProt P14784 27-239, limits assumed)
T1 construct: bought recombinant protein; also called hCD122 (Acro)
T1 sequence (looked up): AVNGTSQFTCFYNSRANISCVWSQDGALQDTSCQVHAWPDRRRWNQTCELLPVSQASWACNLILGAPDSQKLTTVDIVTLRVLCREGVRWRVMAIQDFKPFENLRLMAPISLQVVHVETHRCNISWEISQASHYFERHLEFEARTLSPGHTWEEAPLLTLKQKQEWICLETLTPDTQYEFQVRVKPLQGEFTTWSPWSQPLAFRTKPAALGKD


What was measured:
hIL2Rβ (hCD122) = target: T1, hIL2Rβ (hCD122); test: ELISA (method of section 2.1.1): sample captured on coated goat anti-human IgG, hCD122 titrated; the x axis is the CD122 concentration
Protocol: ELISA was performed as follows: a goat anti-human IgG (Jackson Immunoresearch) was diluted to 1 μg/mL in 1×PBS and added to an ELISA plate at 100 μL/well, and then incubated at 4° C. overnight. The plate was washed with PBS and then blocked at room temperature for 1 hour after adding the blocking solution (PBST containing 1% BSA) to each well. […] The plate was washed with PBST; the HRP-labeled anti-6×His-tag secondary antibody (Proteintech) diluted at a ratio of 1:10,000 in blocking solution was then added to each well and incubated at room temperature for 1 hour. The plate was washed with PBST; the TMB chromogenic solution (Thermo) was added to each well and incubated in dark for 3-10 minutes at room temperature. The stop solution (2 M HCl) was added to each well, and OD values at a wavelength of 450-570 nm were read using a multimode microplate reader (Varioskan, Thermo).

hIL2-DM-his = target: T2, hIL2-DM-his (human, UniProt P60568 21-153); test: BLI ForteBio, Ab on Protein A sensor
T2 construct: expressed in ExpiCHO-S cells, nickel-column purified; also called hIL-2 mutein containing two point mutations K64G and N90R (with a his-tag); not shown: his-tag

| Binder | binding result (hIL2Rβ (hCD122)) | Binding Response (nm) (hIL2-DM-his) | Kd (hIL2-DM-his) [nM] | koff (hIL2-DM-his) [s⁻¹] | kon (hIL2-DM-his) [M⁻¹ s⁻¹] | binding result (hIL2-DM-his) |
| --- | --- | --- | --- | --- | --- | --- |
| hS4B6-H6K3-hu10 (antibody, V domains shown, H6K3 with light chain D56T) VH: QVQLVQSGAEVKKPGATVKISCKVSGDTITAYYLHWVRQAPGQGLEWIGRIDPEDDSTKYAENFKNRVTITADTSTNTAYMELSSLRSEDTAVYYCTTVTFYYSRELRWFAYWGQGTLVTVSS VL: DIVLTQSPATLSLSPGERATLSCQASQDIGNYLSWYQQKPGQAPRLLIYSATSLATGIPARFSGSRSGTDYTLTISSLEPEDFAVYYCLQHYSTPYTFGQGTKLEIK | – | 0.172 | 28.3 | 0.0106 | 372000 | – |
| hS4B6-H6K3-hu11 (antibody, V domains shown, H6K3 with light chain R66G) VH: QVQLVQSGAEVKKPGATVKISCKVSGDTITAYYLHWVRQAPGQGLEWIGRIDPEDDSTKYAENFKNRVTITADTSTNTAYMELSSLRSEDTAVYYCTTVTFYYSRELRWFAYWGQGTLVTVSS VL: DIVLTQSPATLSLSPGERATLSCQASQDIGNYLSWYQQKPGQAPRLLIYSATSLADGIPARFSGSGSGTDYTLTISSLEPEDFAVYYCLQHYSTPYTFGQGTKLEIK | – | – | – | – | – | no binding (tested: 100 nM (highest antigen concentration)) |
| hS4B6-H6K3-hu07 (antibody, V domains shown, H6K3 with heavy chain N65G) VH: QVQLVQSGAEVKKPGATVKISCKVSGDTITAYYLHWVRQAPGQGLEWIGRIDPEDDSTKYAENFKGRVTITADTSTNTAYMELSSLRSEDTAVYYCTTVTFYYSRELRWFAYWGQGTLVTVSS VL: DIVLTQSPATLSLSPGERATLSCQASQDIGNYLSWYQQKPGQAPRLLIYSATSLADGIPARFSGSRSGTDYTLTISSLEPEDFAVYYCLQHYSTPYTFGQGTKLEIK | – | 0.13 | 45.3 | 0.0181 | 400000 | – |
| IC-Cy08-QG (other, IC-Cy08 with light chain Q27G; also called H6K3(H)-Cy-08-QG) heavy: APTSSSTKKTQLQLEHLLLDLQMILNGINNYKNPKLTRMLTFKFYMPKKATELKHLQCLEEELGCLEEVLNLAQSKNFHLRPRDLISNIRVIVLELKGSETTFMCEYADETATIVEFLNRWITFCQSIISTLTGGGGSGGGGSGGGGSGGGGSQVQLVQSGAEVKKPGATVKISCKVSGDTITAYYMHWVRQAPGQGLEWIGRIDPEDDSTKYAENFKGRVTITADTSTDTAYMELSSLRSEDTAVYYCTTVTCYYSRELRWFAYWGQGTLVTVSS VL: DIVLTQSPATLSLSPGERATLSCQASGDIGNYLSWYQQKPGQAPRLLIYSATSLASGIPARFSGSRSGTDFTLTISSLEPEDFAVYYCLQHYSTPYTFGQGTKLEIK | binds | – | – | – | – | – |
| IC-Cy08-QE (other, IC-Cy08 with light chain Q27E; also called H6K3(H)-Cy-08-QE) heavy: APTSSSTKKTQLQLEHLLLDLQMILNGINNYKNPKLTRMLTFKFYMPKKATELKHLQCLEEELGCLEEVLNLAQSKNFHLRPRDLISNIRVIVLELKGSETTFMCEYADETATIVEFLNRWITFCQSIISTLTGGGGSGGGGSGGGGSGGGGSQVQLVQSGAEVKKPGATVKISCKVSGDTITAYYMHWVRQAPGQGLEWIGRIDPEDDSTKYAENFKGRVTITADTSTDTAYMELSSLRSEDTAVYYCTTVTCYYSRELRWFAYWGQGTLVTVSS VL: DIVLTQSPATLSLSPGERATLSCQASEDIGNYLSWYQQKPGQAPRLLIYSATSLASGIPARFSGSRSGTDFTLTISSLEPEDFAVYYCLQHYSTPYTFGQGTKLEIK | binds | – | – | – | – | – |
| hS4B6-H6K3-hu12 (antibody, V domains shown, H6K3 with light chain Y71F) VH: QVQLVQSGAEVKKPGATVKISCKVSGDTITAYYLHWVRQAPGQGLEWIGRIDPEDDSTKYAENFKNRVTITADTSTNTAYMELSSLRSEDTAVYYCTTVTFYYSRELRWFAYWGQGTLVTVSS VL: DIVLTQSPATLSLSPGERATLSCQASQDIGNYLSWYQQKPGQAPRLLIYSATSLADGIPARFSGSRSGTDFTLTISSLEPEDFAVYYCLQHYSTPYTFGQGTKLEIK | – | 0.152 | 32.3 | 0.0174 | 537000 | – |
| IC-Cy08-QD (other, IC-Cy08 with light chain Q27D; also called H6K3(H)-Cy-08-QD) heavy: APTSSSTKKTQLQLEHLLLDLQMILNGINNYKNPKLTRMLTFKFYMPKKATELKHLQCLEEELGCLEEVLNLAQSKNFHLRPRDLISNIRVIVLELKGSETTFMCEYADETATIVEFLNRWITFCQSIISTLTGGGGSGGGGSGGGGSGGGGSQVQLVQSGAEVKKPGATVKISCKVSGDTITAYYMHWVRQAPGQGLEWIGRIDPEDDSTKYAENFKGRVTITADTSTDTAYMELSSLRSEDTAVYYCTTVTCYYSRELRWFAYWGQGTLVTVSS VL: DIVLTQSPATLSLSPGERATLSCQASDDIGNYLSWYQQKPGQAPRLLIYSATSLASGIPARFSGSRSGTDFTLTISSLEPEDFAVYYCLQHYSTPYTFGQGTKLEIK | binds | – | – | – | – | – |

Second part, led by results:

| binding result (hIL2Rβ (hCD122)) | Binding Response (nm) (hIL2-DM-his) | Kd (hIL2-DM-his) [nM] | koff (hIL2-DM-his) [s⁻¹] | kon (hIL2-DM-his) [M⁻¹ s⁻¹] | Binder | binding result (hIL2-DM-his) |
| --- | --- | --- | --- | --- | --- | --- |
| binds | – | – | – | – | IC-Cy08-DE (other, IC-Cy08 with light chain D1E; also called H6K3(H)-Cy-08-DE) heavy: APTSSSTKKTQLQLEHLLLDLQMILNGINNYKNPKLTRMLTFKFYMPKKATELKHLQCLEEELGCLEEVLNLAQSKNFHLRPRDLISNIRVIVLELKGSETTFMCEYADETATIVEFLNRWITFCQSIISTLTGGGGSGGGGSGGGGSGGGGSQVQLVQSGAEVKKPGATVKISCKVSGDTITAYYMHWVRQAPGQGLEWIGRIDPEDDSTKYAENFKGRVTITADTSTDTAYMELSSLRSEDTAVYYCTTVTCYYSRELRWFAYWGQGTLVTVSS VL: EIVLTQSPATLSLSPGERATLSCQASQDIGNYLSWYQQKPGQAPRLLIYSATSLASGIPARFSGSRSGTDFTLTISSLEPEDFAVYYCLQHYSTPYTFGQGTKLEIK | – |
| – | 0.127 | 58.1 | 0.0207 | 356000 | hS4B6-H6K3-hu08 (antibody, V domains shown, H6K3 with heavy chain N76D; also called H6K3-huis) VH: QVQLVQSGAEVKKPGATVKISCKVSGDTITAYYLHWVRQAPGQGLEWIGRIDPEDDSTKYAENFKNRVTITADTSTDTAYMELSSLRSEDTAVYYCTTVTFYYSRELRWFAYWGQGTLVTVSS VL: DIVLTQSPATLSLSPGERATLSCQASQDIGNYLSWYQQKPGQAPRLLIYSATSLADGIPARFSGSRSGTDYTLTISSLEPEDFAVYYCLQHYSTPYTFGQGTKLEIK | – |
| – | 0.18 | 23.6 | 0.00867 | 367000 | hS4B6-H6K3-hu09 (antibody, V domains shown, H6K3 with light chain D56S) VH: QVQLVQSGAEVKKPGATVKISCKVSGDTITAYYLHWVRQAPGQGLEWIGRIDPEDDSTKYAENFKNRVTITADTSTNTAYMELSSLRSEDTAVYYCTTVTFYYSRELRWFAYWGQGTLVTVSS VL: DIVLTQSPATLSLSPGERATLSCQASQDIGNYLSWYQQKPGQAPRLLIYSATSLASGIPARFSGSRSGTDYTLTISSLEPEDFAVYYCLQHYSTPYTFGQGTKLEIK | – |
| – | 0.135 | 52.5 | 0.0192 | 365000 | hS4B6-H6K3-hu06 (antibody, V domains shown, H6K3 with heavy chain N65S) VH: QVQLVQSGAEVKKPGATVKISCKVSGDTITAYYLHWVRQAPGQGLEWIGRIDPEDDSTKYAENFKSRVTITADTSTNTAYMELSSLRSEDTAVYYCTTVTFYYSRELRWFAYWGQGTLVTVSS VL: DIVLTQSPATLSLSPGERATLSCQASQDIGNYLSWYQQKPGQAPRLLIYSATSLADGIPARFSGSRSGTDYTLTISSLEPEDFAVYYCLQHYSTPYTFGQGTKLEIK | – |
| binds | – | – | – | – | IC-Cy08-QK (other, IC-Cy08 with light chain Q27K; also called H6K3(H)-Cy-08-QK; C-Cy8-QK) heavy: APTSSSTKKTQLQLEHLLLDLQMILNGINNYKNPKLTRMLTFKFYMPKKATELKHLQCLEEELGCLEEVLNLAQSKNFHLRPRDLISNIRVIVLELKGSETTFMCEYADETATIVEFLNRWITFCQSIISTLTGGGGSGGGGSGGGGSGGGGSQVQLVQSGAEVKKPGATVKISCKVSGDTITAYYMHWVRQAPGQGLEWIGRIDPEDDSTKYAENFKGRVTITADTSTDTAYMELSSLRSEDTAVYYCTTVTCYYSRELRWFAYWGQGTLVTVSS VL: DIVLTQSPATLSLSPGERATLSCQASKDIGNYLSWYQQKPGQAPRLLIYSATSLASGIPARFSGSRSGTDFTLTISSLEPEDFAVYYCLQHYSTPYTFGQGTKLEIK | – |
